According to patent publication US6187552A, “Method for identifying inhibitors of JAK2/cytokine receptor binding” (Pharmacia & Upjohn Company, priority 1998, dated 2001):

Assays:
[1] = test system: peptide 4 (βc peptide) bound to SPA beads; experiment: SPA competition: unlabeled JAK2 against labeled JAK2/NJAK2 for peptide 4 bound to SPA beads; assay type: binding, human
human JAK2 = biological target: T1, human JAK2 (Homo sapiens, UniProt O60674); experiment: SPA: binding of 3H-JAK2 to βc peptides on streptavidin-coated beads; conditions: JAK2 from 32.5 nM to 16.25 nM; FIG. 14
T1 construct: NJAK2 = N-terminal 294 residues
Procedure: Cells were lysed by dounce homogenization (20 strokes) in 1X phosphate buffered saline (PBS), pH 7.5 at 4 C. […] For some experiments, the JAK2 protein (0.15 mg/ml), aliquoted into 7 equivalent tubes, was then subjected to ultracentrifugation in an Airfuge using an A-110 rotor at an average of 164,000×g for a period of 6 hours at ambient temperature. At zero time, and at each subsequent hour thereafter, a tube of JAK2 was removed for analyses (ELISA, SDS polyacrylamide gel electrophoresis, and Western blotting).
Three different labeling reactions were done using ^3 H-N-succinimidyl propionate (^3 H-NSP, Amersham Life Sciences, Arlington Heights, Ill.). One reaction was done using 0.5 mg of purified JAK2 in 0.1 M borate buffer, pH 8.5, with a reaction volume of 150 μl and an incubation time of one hour on ice with dried 1 mCi of ^3 H-NSP (toluene was removed using a stream of nitrogen). […] Another reaction was done using the buffer 0.1 M sodium phosphate, pH 8.0, and a similar volume as before. One milligram of JAK2 in 1.2 ml of phosphate buffer was incubated for three hours on ice. […]
Triplicate reactions were done for each data point. […] The plates were then read on a MicroBeta (Wallac) set to read scintillation due to tritium.
Either ^3 H-JAK2 or ^3 H-NJAK2 was added to the wells and, after incubation, the signals measured. […]

[2] = JAK2 remaining soluble after ultracentrifugation (ELISA) / aggregation; assay type: physicochemical
Procedure: Recombinant JAK2 protein containing the Flag affinity label ([…]) [SEQ ID NO:20] was expressed in either SF9 or HI-5 cells as described. Cells were lysed by dounce homogenization (20 strokes) in 1X phosphate buffered saline (PBS), pH 7.5 at 4 C. Clarified extract was passed through an anti-Flag immunoaffinity column (Kodak, New Haven, Conn.) and purified recombinant JAK2 was eluted by competition with a solution of Flag peptide at a concentration of 250 ug/ml in 1×PBS. Purity was characterized by a single band on SDS polyacrylamide gels. For some experiments, the JAK2 protein (0.15 mg/ml), aliquoted into 7 equivalent tubes, was then subjected to ultracentrifugation in an Airfuge using an A-110 rotor at an average of 164,000×g for a period of 6 hours at ambient temperature. At zero time, and at each subsequent hour thereafter, a tube of JAK2 was removed for analyses (ELISA, SDS polyacrylamide gel electrophoresis, and Western blotting).
Aliquots of the above supernatants were removed and subjected to an ELISA assay. Each solution was diluted 1:50 with 0.1M sodium carbonate, pH 9.0, and applied in multiple concentrations to a 96 well plate. After an overnight incubation, each well was washed with 0.1% BSA in 1×PBS, pH 7.5 (wash buffer), followed by continued incubation for an additional hour at 4 C. The wells were then incubated with 150 ul of C20 anti-JAK2 antibody (Santa Cruz Biotechnology, Santa Cruz, Calif.) in wash buffer for 1 hour at 4 C., followed by extensive washes with wash buffer. Secondary antibody (150 ul of alkaline phosphatase labeled goat anti-rabbit IgG (Promega, Madison, Wis.) at a dilution of 1:2000) was applied for 1 hour at 4 C., followed by extensive washes with buffer. Finally, wells were incubated with 0.1 M Tris HCl, 5 mM MgCl2, pH 9.5, and then with the same buffer (150 ul) containing 5 mg/ml p-nitrophenylphosphate (pNPP). Color formation was read by a SpectraMax 250 plate reader set at an absorbance of 405 nm. The linear phase of each concentration curve was chosen for each of the time points (0,1,2,3,4,5,and 6 hours of ultracentrifugation) in order to calculate the relative amount of recombinant JAK2 remaining in the supernatant of each fraction.
To see whether more highly aggregated JAK2 could be separated by ultracentifugation from less aggregated or monomeric JAK2, a sample of freshly purified JAK2 at a defined concentration was centrifuged in an airfuge as described in Materials and Methods. Samples were taken at 7 different time points over a 6 hour period to assess the amount of JAK2 which remained in the supernatant phase. After 1 hour at 164,000×g, 40 to 50% of the original JAK2 was detected, a value which remained relatively constant for up to 5 additional hours in this experiment. […] Since the supernatant was removed from below the meniscus by pipetting, a determination of the molecular weight could not be established in this experiment.

Molecule | apparent Kd versus more aggregated JAK2 ([1]; inferred from competition of supernatant, FIG. 18) | competition with labeled JAK2 versus starting material ([1]; supernatant after ultracentrifugation, peptide 4 on beads, FIG. 18) | signal obtained on lowering final JAK2 concentration (human JAK2) | competition of labeled JAK2 binding ([1]; 5-fold excess unlabeled JAK2, peptide 4) | competition of labeled NJAK2 binding ([1]; 10-fold excess unlabeled JAK2, peptide 4) | % JAK2 Remaining ([2]; 0 hours ultracentrifugation) [%] | % JAK2 Remaining ([2]; 1 hour ultracentrifugation, 164,000×g) [%] | % JAK2 Remaining ([2]; 2 hours ultracentrifugation, 164,000×g) [%] | % JAK2 Remaining ([2]; 3 hours ultracentrifugation, 164,000×g) [%] | % JAK2 Remaining ([2]; 4 hours ultracentrifugation, 164,000×g) [%] | % JAK2 Remaining ([2]; 5 hours ultracentrifugation, 164,000×g) [%] | % JAK2 Remaining ([2]; 6 hours ultracentrifugation, 164,000×g) [%] | original JAK2 detected in supernatant ([2]; after 1 hour at 164,000×g, relatively constant up to 5 additional hours) [%] | JAK2 remaining soluble as defined by ELISA ([2]; after ultracentrifugation) [%] | aggregation by size exclusion chromatography ([2]; data not shown)
JAK2 from the supernatant: supernatant after 1 hour of ultracentrifugation of JAK2 (protein, UniProt O60674 1-1132, looked up) Tyrosine-protein kinase JAK2: MGMACLTMTEMEGTSTSSIYQNGDISGNANSMKQIDPVLQVYLYHSLGKSEADYLTFPSGEYVAEEICIAASKACGITPVYHNMFALMSETERIWYPPNHVFHIDESTRHNVLYRIRFYFPRWYCSGSNRAYRHGISRGAEAPLLDDFVMSYLFAQWRHDFVHGWIKVPVTHETQEECLGMAVLDMMRIAKENDQTPLAIYNSISYKTFLPKCIRAKIQDYHILTRKRIRYRFRRFIQQFSQCKATARNLKLKYLINLETLQSAFYTEKFEVKEPGSGPSGEEIFATIIITGNGGIQWSRGKHKESETLTEQDLQLYCDFPNIIDVSIKQANQEGSNESRVVTIHKQDGKNLEIELSSLREALSFVSLIDGYYRLTADAHHYLCKEVAPPAVLENIQSNCHGPISMDFAISKLKKAGNQTGLYVLRCSPKDFNKYFLTFAVERENVIEYKHCLITKNENEEYNLSGTKKNFSSLKDLLNCYQMETVRSDNIIFQFTKCCPPKPKDKSNLLVFRTNGVSDVPTSPTLQRPTHMNQMVFHKIRNEDLIFNESLGQGTFTKIFKGVRREVGDYGQLHETEVLLKVLDKAHRNYSESFFEAASMMSKLSHKHLVLNYGVCVCGDENILVQEFVKFGSLDTYLKKNKNCINILWKLEVAKQLAWAMHFLEENTLIHGNVCAKNILLIREEDRKTGNPPFIKLSDPGISITVLPKDILQERIPWVPPECIENPKNLNLATDKWSFGTTLWEICSGGDKPLSALDSQRKLQFYEDRHQLPAPKWAELANLINNCMDYEPDFRPSFRAIIRDLNSLFTPDYELLTENDMLPNMRIGALGFSGAFEDRDPTQFEERHLKFLQQLGKGNFGSVEMCRYDPLQDNTGEVVAVKKLQHSTEEHLRDFEREIEILKSLQHDNIVKYKGVCYSAGRRNLKLIMEYLPYGSLRDYLQKHKERIDHIKLLQYTSQICKGMEYLGTKRYIHRDLATRNILVENENRVKIGDFGLTKVLPQDKEYYKVKEPGESPIFWYAPESLTESKFSVASDVWSFGVVLYELFTYIEKSKSPPAEFMRMIGNDKQGQMIVFHLIELLKNNGRLPRPDGCPDEIYMIMTECWNNNVNQRPSFRDLALRVDQIRDNMAG | higher apparent Kd than the more aggregated JAK2 | competed less effectively than the starting material |  |  |  |  |  |  |  |  |  |  |  |  | 
JAK2: Recombinant JAK2 protein containing the Flag affinity label, expressed in SF9 or HI-5 cells (protein, Flag tag) MACLTMTEMEGTSTSSIYQNGDISGNANSMKQIDPVLQVYLYHSLGKSEADYLTFPSGEYVAEEICIAASKACGITPVYHNMFALMSETERIWYPPNHVFHIDESTRHNVLYRIRFYFPRWYCSGSNRAYRHGISRGAEAPLLDDFVMSYLFAQWRHDFVHGWIKVPVTHETQEECLGMAVLDMMRIAKENDQTPLAIYNSISYKTFLPKCIRAKIQDYHILTRKRIRYRFRRFIQQFSQCKATARNLKLKYLINLETLQSAFYTEKFEVKEPGSGPSGEEIFATIIITGNGGIQWSRGKHKESETLTEQDLQLYCDFPNIIDVSIKQANQEGSNESRVVTIHKQDGKNLEIELSSLREALSFVSLIDGYYRLTADAHHYLCKEVAPPAVLENIQSNCHGPISMDFAISKLKKAGNQTGLYVLRCSPKDFNKYFLTFAVERENVIEYKHCLITKNENEEYNLSGTKKNFSSLKDLLNCYQMETVRSDNIIFQFTKCCPPKPKDKSNLLVFRTNGVSDVPTSPTLQRPTHMNQMVFHKIRNEDLIFNESLGQGTFTKIFKGVRREVGDYGQLHETEVLLKVLDKAHRNYSESFFEAASMMSKLSHKHLVLNYGVCVCGDENILVQEFVKFGSLDTYLKKNKNCINILWKLEVAKQLAWAMHFLEENTLIHGNVCAKNILLIREEDRKTGNPPFIKLSDPGISITVLPKDILQERIPWVPPECIENPKNLNLATDKWSFGTTLWEICSGGDKPLSALDSQRKLQFYEDRHQLPAPKWAELANLINNCMDYEPDFRPSFRAIIRDLNSLFTPDYELLTENDMLPNMRIGALGFSGAFEDRDPTQFEERHLKFLQQLGKGNFGSVEMCRYDPLQDNTGEVVAVKKLQHSTEEHLRDFEREIEILKSLQHDNIVKYKGVCYSAGRRNLKLIMEYLPYGSLRDYLQKHKERIDHIKLLQYTSQICKGMEYLGTKRYIHRDLATRNILVENENRVKIGDFGLTKVLPQDKEYYKVKEPGESPIFWYAPESLTESKFSVASDVWSFGVVLYELFTYIEKSKSPPAEFMRMIGNDKQGQMIVFHLIELLKNNGRLPRPDGCPDEIYMIMTECWNNNVNQRPSFRDLALRVDQIRDNMAGDYKDDDDKN |  |  | decreases significantly | competed significantly | reduced almost to background | 100 | 46.0 | 39.6 | 32.5 | 43.7 | 44.1 | 41.3 | 40 to 50 | 50 | exhibited degrees of aggregation
